US20110059013A1, “ANTI-ROBO4 ANTIBODIES AND USES THEREFOR” (Genentech, Inc., priority 2007, published 2011)

Columns and labels:
UNC5B = biological target: T1, UNC5B (Homo sapiens, UniProt Q8IZJ1); assay: SPR binding to immobilized UNC5B-Fc
T1 construct: extracellular domain of UNC5B fused to an Fc region; Fc region
Protocol: It has been shown that netrin binding to members of the uncoordinated-5 (UNC5) family of receptors (UNC5A, B, C, and D) results in neural axon […] (Klagsbrun, M. and Eichmann, A., Cytokine & Growth Factor Reviews 16(4-5):535-548 (2005)). Netrin-UNC5B interaction has been implicated in angiogenesis (Klagsbrun, M. and Eichmann, A., supra (2005) and Lu, X. et al., Nature 432:179-186 (2004)). The interaction of Robo4 with UNC5B in vitro was determined by SPR binding measurements in which UNC5B-Fc fusion protein (extracellular domain of UNC5B fused to an Fc region) was immobilized on a chip and soluble Robo4-Fc or Robo4-His was allowed to interact with it at different concentrations.

HUVEC = HUVEC cellular migration assay; format: cell-based, human
Protocol: Robo4-Fc and Robo4-His were contacted with vascular ECs using a HUVEC migration assay and in the presence or absence of VEGF.
Endothelial cell migration was not blocked by anti-Robo4 antibody in an in vitro assay using human umbilical vascular endothelial cells (HUVEC) cellular migration assay. HUVECs endogenously express human Robo4. The assay was performed as follows. HUVECs were pre-incubated for 2 hours with VEGF.

T1 sequence (Q8IZJ1 27-377 limits assumed, species assumed): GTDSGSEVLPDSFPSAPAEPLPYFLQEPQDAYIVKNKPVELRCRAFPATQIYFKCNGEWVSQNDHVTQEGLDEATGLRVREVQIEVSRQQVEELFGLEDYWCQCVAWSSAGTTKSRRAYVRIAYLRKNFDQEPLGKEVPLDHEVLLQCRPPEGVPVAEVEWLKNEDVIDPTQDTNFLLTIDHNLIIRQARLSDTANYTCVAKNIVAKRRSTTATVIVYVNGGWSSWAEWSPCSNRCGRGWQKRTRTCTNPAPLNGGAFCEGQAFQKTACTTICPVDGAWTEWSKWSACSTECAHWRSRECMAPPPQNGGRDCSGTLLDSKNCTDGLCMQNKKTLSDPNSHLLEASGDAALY

- interaction with UNC5B (UNC5B): interacts in vitro with UNC5B
B1: Robo4-His: soluble Robo4 extracellular domain fused to a C-terminal Histidine tag (protein)
chain: QDSPPQILVHPQDQLFQGPGPARMSCQASGQPPPTIRWLLNGQPLSMVPPDPHHLLPDGTLLLLQPPARGHAHDGQALSTDLGVYTCEASNRLGTAVSRGARLSVAVLREDFQIQPRDMVAVVGEQFTLECGPPWGHPEPTVSWWKDGKPLALQPGRHTVSGGSLLMARAEKSDEGTYMCVATNSAGHRESRAARVSIQEPQDYRAHHHHHHHH
- blocking of endothelial cell migration (HUVEC; HUVECs pre-incubated with VEGF, 16 hours): Neither anti-Robo4 nor the soluble Robo4 extracellular domain fusion proteins (Robo4-Fc and Robo4-His) blocked EC migration
- induction of EC migration (HUVEC; alone, absence of VEGF): did not induce EC migration
